What was measured:
primed T cells [1] = experiment: proliferation of TCR-stimulated primed T cells (3H-thymidine incorporation); assay type: cell-based, mouse (BALB/c); conditions: for T cell proliferation, increasing concentrations of TGF-β: 0.005-5.0 ng/ml, regardless of the presence of α-MSH 30 pg/ml; for T cell proliferation, TGF-β added from the start of TCR-stimulation through 6 hours later: no α-MSH
primed T cells [2] = experiment: total TGF-β production by TCR-stimulated primed T cells, Mv1Lu (CCL-64) bioassay; assay type: cell-based, mouse (BALB/c); conditions: α-MSH 30 pg/ml, TGF-β 5.0 ng/ml, 48 hours
Description: TGF-β bioassay. To measure total TGF-β, 100 μl of conditioned media was pretreated according to standard procedures (24) with 10 μl 1N HCL to lower the media pH to 2 and incubated for 1 hour at 4° C. The acid was neutralized with 20 μl of a 1:1 mixture of 1N NaOH: 1M HEPES returning the culture supernatant to a pH 7.3. The transiently acidified conditioned media was then used in the Mv1Lu assay; diluted 1:4 in EMEM+0.5% FBS. To the wells of a Falcon 96-well flat-bottom plate, 100 μl of diluted transiently acidified samples were added with 100 μl of 1×10^5 Mv1Lu cells (CCL-64; ATCC, Rockville, Md.). The plate was incubated for 20 hours at 37° C., 5% CO2 followed by the addition of 20 μl of 50 μCi/ml 3H-thymidine and the plate was incubated for an additional 4 hours. Supernatant was discarded and 50 μl of 10× Trypsin-EDTA (Biowhittaker, Walkersville, Md.) solution was added to each well and the plate was incubated for 15 minute at 37° C. The cells were collected onto filter paper using a Tomtec Plate Harvester 96 and counts per minute (CPM) of incorporation 3H-thymidine was measured using a Wallac 1205 Betaplate Liquid Scintillation Counter. Cultures of known amounts of purified activated TGF-β1, 20 ng/ml to 0.2 pg/ml (R&:D Systems), were prepared in the same plate for calculating a standard curve to quantify the concentration of total TGF-β in the samples.
Primed T Cell In Vitro Assays. From draining lymph nodes of BALB/c mice immunized 7 days previously with MT-Ag, primed T cells were isolated using CD3 enrichment columns (R&D Systems). T-cells (4×10^5 cells) suspended in serum-free media were added to the wells of a 96 well, round bottom plate (Corning). To the wells were added α-MSH (30 pg/ml) and anti-TCR antibody (2C11; 1 μg/ml) diluted in serum-free culture media. Various concentrations of TGF-β1 or TGF-β2 in media were added. In a second set of experiments TGF-β1 or TGF-β2 at a fixed concentration of 5 ng/ml were added to the wells at various times (0, 2, 4 and 6 hours) after addition of anti-TCR antibody. The cultures were incubated for 24 hours and 0.5 μCi of 3H-thymidine (NEM, Boston, Mass.) was added to the wells and the cultures were incubated for an additional 24 hours. The cells were collected and incorporated radiolabeled was measured by scintillation counting. Production of TGF-β by the treated primed T cells was done by centrifuging the culture plates 24 hours after the addition of anti-TCR antibody, removing the supernatant, washing the cultures once and adding fresh media. […]
FIG. 4 is a bar graph of TGF-β production by primed T cells TCR-stimulated in the presence of α-MSH. […] Significance (p=0.05) was determined by Student's t-test between TGF-β concentrations in cultures of activated α-MSH treated T cells and T cells activated in the absence of α-MSH. […]

primed Th1 cells = experiment: in vitro regulatory T cell activity assay (IFN-γ of freshly activated primed Th1 cells in coculture); assay type: cell-based, mouse (BALB/c); conditions: for induction of regulatory T cell activity (suppression of IFN-γ of other Th1 cells), factor individually: α-MSH 30 pg/ml or TGF-β 5.0 ng/ml; for induction of regulatory T cell activity, TGF-β added 4 hours after TCR-stimulation in the presence of α-MSH: α-MSH 30 pg/ml, TGF-β 5.0 ng/ml
Description: (§1) Assay For In Vitro Regulatory T Cell Activity. The α-MSH-treated TCR-stimulated T cells, as described above, were cultured for 48 hours. The plate was spun down at 250×g for 10 minutes and supernatant discarded. Freshly isolated, enriched in vivo primed Th1 cells (4×10^6 cells/ml) mixed with 2C11 (1 μg/ml) were added (200 μl) to the wells of the α-MSH pre-treated, TCR-stimulated T cells and incubated for 48 hours. The culture supernatant was assayed for IFN-γ by sandwich ELISA. For long term cultures, primed T cells were TCR-stimulated in the presence of α-MSH for 48 hours. The plate was centrifuged and supernatant was exchanged for 200 μl of 2C11 (1 μg/ml) in fresh media, no x-MSH. The cultures were incubated for 72 hours and the conditioned media was again exchanged for fresh media and 2C11 antibody. The cultures were incubated for an additional 48 hours, centrifuged, supernatant discarded, and added were fresh in vivo primed Th1 cells and 2C11 antibody. Soluble TGF-β receptor II (sTGF-βRII, R&D Systems) was added to some of the cultures. These cultures were incubated for 48 hours and the culture supernatant was assayed for IFN-γ by sandwich ELISA.
Primed T cells (4×10^5 cells) were enriched and activated with anti-CD3 in the presence (α-MSH+anti-CD3) or absence (+anti-CD3) of α-MSH (30 pg/ml). After 48 hours of incubation the cells were mixed with freshly enriched primed Th1 cells (4×10^5 cells) and anti-CD3 antibody and cultured for 48 hours. The culture supernatant was assayed for IFN-γ by sandwich ELISA. Results are presented as IFN-γ pg/ml±SEM of eight independent experiments.
In addition, T cells initial TCR-stimulated in the presence of α-MSH and subsequently restimulated twice (Day 2 and Day 5) with anti-TCR antibody in the absence of α-MSH, still suppressed IFN-γ production by freshly activated primed Th1 cells (FIG. 6). […] Primed T cells (4×10^5 cells) were enriched and activated with anti-CD3 antibody in the presence of 30 pg/ml α-MSH (α-MSH+anti-CD3) or absence of α-MSH (+anti-CD3). After 48 hours of incubation the cells were centrifuged and resuspended in fresh media with anti-CD3 antibodies and incubated for 72 hours (day 5). The cells were again washed and re-stimulated with anti-CD3 and incubated for an additional 48 hours (day 7). After the final incubation the treated T cells (4×10^5 cells) were mixed with freshly enriched primed Th1 cells (4×10^5 cells) and anti-CD3 antibody and cultured for 48 hours. The culture supernatant was assayed for IFN-γ by sandwich ELISA. Results are presented as IFN-γ pg/ml±SEM of eight independent experiments. […] Therefore, α-MSH mediates induction of functionally active, regulatory Th3 cells.
TGF-β and α-MSH induce regulatory T cell activity. Primed T cells were TCR-stimulated in the presence or absence of 30 pg/ml α-MSH with TGF-β1 or TGF-β2 (5.0 ng/ml) added 4 hours after TCR-stimulation. The treated T cells (Regulatory T cells) were added to cultures of freshly activated primed T cells. Culture supernatants were assayed for IFN-γ 48 hours after addition of treated T cells. Data are presented as percent suppression±SEM of IFN-γ produced by freshly activated T cells with no added regulatory cells, from eight independent experiments.

TGF-β = experiment: in vitro regulatory T cell assay with soluble TGF-β receptor type II added; assay type: cell-based, mouse; conditions: increasing amounts added to cocultures, 48 hours
Description: as §1
α-MSH induced regulatory T cells that through TGF-β suppress activation of other T cells. […] The regulatory T cells were washed and added to cultures of freshly TCR-stimulated primed T cells as described for FIG. 15. […]

## TGF-β1: purified activated TGF-β1 (R&D Systems), transforming growth factor
Primed T cells [1]
  T cell proliferation, increasing concentrations of TGF-β: suppressed
Primed T cells [1]; TCR-stimulated primed T cells, FIG. 9
  T cell proliferation, low concentrations of TGF-β: either no effect or enhanced
Primed T cells [1]; TGF-β 5.0 ng/ml
  T cell proliferation, TGF-β added from the start of TCR-stimulation through 6 hours later: suppressed
Primed T cells [2]
  α-MSH-induced TGF-β production after addition of TGF-β at various times after TCR-stimulation: did not change
Primed Th1 cells
  induction of regulatory T cell activity (suppression of IFN-γ of other Th1 cells), factor individually: could not alone or with α-MSH induce regulatory T cells
  induction of regulatory T cell activity, TGF-β added 4 hours after TCR-stimulation in the presence of α-MSH: antagonized α-MSH-mediated induction of regulatory T cells

B1: sTGF-βRII: soluble TGF-β receptor type-two (R&D Systems), used to neutralize TGF-β activity (protein, UniProt P37173 23-166, looked up)
extracellular domain: TIPPHVQKSVNNDMIVTDNNGAVKFPQLCKFCDVRFSTCDNQKSCMSNCSITSICEKPQEVCVAVWRKNDENITLETVCHDPKLPYHDFILEDAASPKCIMKEKKKPGETFFMCSCSSDECNDNIIFSEEYNTSNPDLLLVIFQ
modifications: extracellular domain
TGF-β
  effect on suppression of IFN-γ production mediated by α-MSH-treated T cells: neutralized

B2: TGF-β2: recombinant / purified human transforming growth factor-β2 (R&D Systems) (protein, UniProt P61812 303-414, looked up)
Transforming growth factor …: ALDAAYCFRNVQDNCCLRPLYIDFKRDLGWKWIHEPKGYNANFCAGACPYLWSSDTQHSRVLSLYNTINPEASASPCCVSQDLEPLTILYYIGKTPKIEQLSNMIVKSCKCS
modifications: Transforming growth factor beta-2
Primed T cells [1]
  T cell proliferation, increasing concentrations of TGF-β: suppressed
Primed T cells [1]; TGF-β 5.0 ng/ml
  T cell proliferation, TGF-β added from the start of TCR-stimulation through 6 hours later: suppressed
Primed T cells [1]; TGF-β 5.0 ng/ml, α-MSH 30 pg/ml present
  T cell proliferation, TGF-β added at or later than 4 hours after TCR-stimulation: recovered
Primed T cells [2]
  α-MSH-induced TGF-β production after addition of TGF-β at various times after TCR-stimulation: did enhance
Primed Th1 cells
  induction of regulatory T cell activity (suppression of IFN-γ of other Th1 cells), factor individually: induced regulatory T cell activity
  induction of regulatory T cell activity, TGF-β added 4 hours after TCR-stimulation in the presence of α-MSH: enhanced the regulatory activity

Reference: US20060127400A1, “Activation of regulatory T cells by alpha-melanocyte stimulating hormone” (THE SCHEPENS EYE RESEARCH INSTITUTE, INC., priority 1999, published 2006)
